Laboratory results taken from PMC6760441, “Structural insights into stressosome assembly” (IUCrJ, 2019).

B1: RsbRA (Bacillus subtilis), full length, residues 1-274, native (pET-22b), of the RsbRA-RsbS complex (natural protein, Bacillus subtilis strain 168, UniProt P42409 1-274, looked up)
chain: MMSNQTVYQFIAENQNELLQLWTDTLKELSEQESYQLTDQVYENISKEYIDILLLSVKDENAAESQISELALRAVQIGLSMKFLATALAEFWKRLYTKMNDKRLPDQESTELIWQIDRFFSPINTEIFNQYSISWEKTVSLQKIALQELSAPLIPVFENITVMPLVGTIDTERAKRIMENLLNGVVKHRSQVVLIDITGVPVVDTMVAHHIIQASEAVRLVGAKCLLAGIRPEIAQTIVNLGIDLSQVITKNTLQKGIQTALEMTDRKIVSLGE
notes: RsbRA, Bacillus subtilis strain 168 (ATCC 23857), full length, residues 1-274; N-terminal nonheme globin domain and C-terminal STAS domain; also called native RsbRA; source: E. coli BL21 Star (DE3), co-purified with 6xHis-thioredoxin-RsbS (IMAC, TEV cleavage, SEC)

How the values were obtained:
[1] = target: B1; assay: cryo-EM structure; RsbRA-RsbS complex at 0.5 mg/ml in 20 mM HEPES pH 7.5, 50 mM NaCl, 0.2 mM TCEP, 5% glycerol; single-particle reconstruction with C1, D2 or I restraints; conditions: both partners purified
[2] = target: the molecule itself; assay: SEC-MALS; 200 ul of 1 mg/ml RsbS on a Superdex 200 analytical column; miniDAWN TREOS II MALS and Optilab rEX detectors
[3] = target: the molecule itself; assay: crystal structure; RsbS 10 mg/ml; micro-batch at 20 C; 35% MPD, 100 mM MES/sodium hydroxide pH 6.0, 200 mM lithium sulfate; space group I23, five monomers in the asymmetric unit
[4] = target: the molecule itself; assay: cryo-EM structure; RsbRA-RsbS complex at 0.5 mg/ml in 20 mM HEPES pH 7.5, 50 mM NaCl, 0.2 mM TCEP, 5% glycerol; single-particle reconstruction with C1, D2 or I restraints

| Binder | binding result [1] | stoichiometry N [2] | stoichiometry N [3] | binding result [4] |
| --- | --- | --- | --- | --- |
| RsbS (Bacillus subtilis), full length, residues 1-121, tag removed (natural protein, Bacillus subtilis strain 168, UniProt P42410 1-121, looked up, phosphoserine at 59 (seen in the crystal structure and by peptide mass fingerprinting; likely phosphorylated during expression in E. coli), RsbS, Bacillus subtilis strain 168 (ATCC 23857), full length, residues 1-121; only a STAS domain; Dimer in solution by SEC-MALS; 60 monomers form an icosahedron in the crystal; The model holds residues 4-119 (chain A) or 5-119 (other chains); A selenomethionine-labelled form was used for phasing; also called native RsbS; Bs RsbS; source: E. coli BL21 Star (DE3), purified (IMAC, TEV cleavage, …)) MRHPKIPILKLYNCLLVSIQWELDDQTALTFQEDLLNKIYETGANGVVIDLTSVDMIDSFIAKVLGDVITMSKLMGAKVVLTGIQPAVAVTLIELGIALEEIETALDLEQGLETLKRELGE | binds | 2 | 60 | – |
| RsbS S59A mutant (natural protein, Bacillus subtilis, RsbS, Bacillus subtilis, with S59A, which restricts phosphorylation; the construct is not described) MRHPKIPILKLYNCLLVSIQWELDDQTALTFQEDLLNKIYETGANGVVIDLTSVDMIDAFIAKVLGDVITMSKLMGAKVVLTGIQPAVAVTLIELGIALEEIETALDLEQGLETLKRELGE | – | 2 | – | – |
| B1 | – | – | – | binds |
